Measurements taken from patent US20230227838A1, “ENHANCED CELL SURVIVAL AGAINST BIOTIC AND ABIOTIC STRESSES THROUGH SALICYLICK ACID-INDUCED NPR1 CONDENSATES” (priority 2020, published 2023).

Biological target: sim3-GFP (Arabidopsis thaliana) (UniProt P93002)
Assay: sim3-GFP IP, LC-MS/MS

sim3-GFP (Arabidopsis thaliana), sequence (P93002 other isoform, or with tags, fused parts or gaps): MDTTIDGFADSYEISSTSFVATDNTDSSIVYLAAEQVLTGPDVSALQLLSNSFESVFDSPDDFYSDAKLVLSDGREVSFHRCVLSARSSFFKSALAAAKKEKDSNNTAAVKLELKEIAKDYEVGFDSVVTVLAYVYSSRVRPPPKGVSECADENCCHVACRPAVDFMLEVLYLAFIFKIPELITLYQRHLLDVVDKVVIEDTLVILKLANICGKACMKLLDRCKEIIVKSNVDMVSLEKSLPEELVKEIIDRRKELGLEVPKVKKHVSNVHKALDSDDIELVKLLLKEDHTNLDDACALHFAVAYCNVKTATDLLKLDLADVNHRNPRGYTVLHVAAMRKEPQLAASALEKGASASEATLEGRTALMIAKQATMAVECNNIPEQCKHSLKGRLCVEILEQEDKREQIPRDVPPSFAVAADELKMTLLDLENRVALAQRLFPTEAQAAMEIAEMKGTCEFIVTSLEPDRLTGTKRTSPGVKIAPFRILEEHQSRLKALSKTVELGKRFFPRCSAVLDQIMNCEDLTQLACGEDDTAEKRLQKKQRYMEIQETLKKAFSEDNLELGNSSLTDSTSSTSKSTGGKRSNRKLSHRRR

Binder | Normalized Fold Change: SA vs Mock [fold]
ADF6 (protein, UniProt Q9ZSK2 1-146, looked up) Actin-depolymerizing factor 6: MSFRGLSRPNAISGMGVADESKTTFLELQRKKTHRYVVFKIDESKKEVVVEKTGNPTESYDDFLASLPDNDCRYAVYDFDFVTSENCQKSKIFFFAWSPSTSGIRAKVLYSTSKDQLSRELQGIHYEIQATDPTEVDLEVLRERAN | 2.26
SAE2, SUMO-activating enzyme 2 (protein, UniProt Q9SJT1 2-700, looked up) SUMO-activating enzyme subunit 2: ATQQQQSAIKGAKVLMVGAGGIGCELLKTLALSGFEDIHIIDMDTIEVSNLNRQFLFRRSHVGQSKAKVARDAVLRFRPNINIRSYHANVKNPEFDVDFFKQFDVVLNGLDNLDARRHVNRLCLAADVPLVESGTTGFLGQVTVHIKGKTECYECQTKPAPKTYPVCTITSTPTKFVHCIVWAKDLLFAKLFGDKNQDNDLNVRSNNSASSSKETEDVFERSEDEDIEQYGRKIYDHVFGSNIEAALSNEETWKNRRRPRPIYSKDVLPESLTQQNGSTQNCSVTDGDLMVSAMPSLGLKNPQELWGLTQNSLVFIEALKLFFAKRKKEIGHLTFDKDDQLAVEFVTAAANIRAESFGIPLHSLFEAKGIAGNIVHAVATTNAIIAGLIVIEAIKVLKKDVDKFRMTYCLEHPSKKLLLMPIEPYEPNPACYVCSETPLVLEINTRKSKLRDLVDKIVKTKLGMNLPLIMHGNSLLYEVGDDLDDIMVANYNANLEKYLSELPSPILNGSILTVEDLQQELSCKINVKHRFFSEILNPVLNSVWFLIILPSTFPKLFHFTESRNQDGLSLDIILGFSNVTIRRVLTMFETGRRLTHPLLILFCHREEFDEEKEPEGMVLSGWTPSPATNGESASTSNNENPVDVTESSSGSEPASKKRRLSETEASNHKKETENVESEDDDIMEVENPMMVSKKKIRVE | 5.82
CLIP-associated protein (protein, UniProt Q8RWY6 1-1439, looked up) CLIP-associated protein: MEEALEMARAKDTKERMAAVERLHQLLEASRKSLSPAEVTSLVDSCLDLLKDSNFRVSQGALQALASAAVLAGEHLKLHLNALVPAVVERLGDSKQPVRDAARRLLTTLMEVSSPTIIVERAGSYAWMHKSWRVREEFARTVTSAIGLFASTELPLQRVILAPILQMLNDPNQAVREAAILCIEEMYMQGGSQFREELQRHHLPSYMVKDINARLERIEPQLRSTDGRSAHHVVNEVKASSVNPKKSSPRAKAPTRENSLFGGDADITEKPIEPIKVYSEKELIREFEKIAATLVPEKDWSMRISAMRRVEGLVAGGATDYSCFRGLLKQLVGPLSTQLADRRSTIVKQACHLLCLLSKELLGDFEACAETFIPVLFKLVVITVLVIAESADNCIKTMLRNCKAARVLPRIAESAKHDRNAILRARCCEYALLTLEHWPDAPEIQRSVDLYEDLIRCCVADAMSEVRATARMCYRMFAKTWPDRSRRLFSSFDPVIQRLINEEDGGIHRRHASPSVRERHSQPSFSQTSAPSNLPGYGTSAIVAMDRSSNLSSGGSLSSGLLLSQSKDVNKGSERSLESVLQSSKQKVSAIESMLRGLHISDRQNPAALRSSSLDLGVDPPSSRDPPFHAVAPASNSHTSSAAAESTHSINKGSNRNGGLGLSDIITQIQASKDSGRSSYRGNLLSESHPTFSSLTAKRGSERNERSSLEESNDAREVRRFMAGHFDRQQMDTAYRDLTFRESNASHVPNFQRPLLRKNVGGRMSAGRRRSFDDSQLQIGDISNFVDGPASLNEALNDGLNSSSDWCARVAAFNFLQTLLQQGPKGAQEVIQSFEKVMKLFLRHLDDPHHKVAQAALSTLADLIPSCRKPFESYMERVLPHVFSRLIDPKEVVRQPCSSTLEIVSKTYSVDSLLPALLRSLDEQRSPKAKLAVIEFAINSFNRYAGNPEISGNSGILKLWLAKLTPLTRDKNTKLKEASITCIISVYNHYDSAGLLNYILSLSVEEQNSLRRALKQYTPRIEVDLLNYMQSKKEKQRIKSYDPSDAIGTSSEEGYAGASKKNIFLGRYSGGSIDSDSGRKWSSSQEPTMITGGVGQNVSSGTQEKLYQNVRTGISSASDLLNPKDSDYTFASAGQNSISRTSPNGSSENIEILDDLSPPHLEKNGLNLTSVDSLEGRHENEVSRELDLGHYMLTSIKVNTTPESGPSIPQILHMINGSDGSPSSSKKSGLQQLIEASVANEESVWTKYFNQILTVVLEVLDDEDFSIKELALSLISEMLKSQKDAMEDSVEIVIEKLLHVSKDTVPKVSTEAEQCLTTVLSQYDPFRCLSVIVPLLVTEDEKTLVACINCLTKLVGRLSQEELMDQLSSFLPAVFEAFGSQSADVRKTVVFCLVDIYIMLGKAFLPYLEGLNSTQVRLVTIYANRISQARNGAPIDADT | 2550
UBP2, ubiquitin-specific protease 2 (protein, UniProt Q8W4N3 1-961, looked up) Ubiquitin carboxyl-terminal hydrolase 2: MGKKAKKKARAPTKEIQTMEISKKVSEEPPSQAGEIAEGDVKAVKETQACVHFDKALNLEKVLDKIKSSRQIKCAECNEGVYGKRGTKAKGSKGKKDFSSSDPKSNNKAIWLCLECGCYVCGGVGLPNGPQSHVLRHSRVTRHRLVIQWENPQLRWCFPCQLLLPVEKEDNGEKKDVLSEVVKLIKGRSLNNLASSDIEDQCSGSGSITSDIKLEGAVTSDIEARDGYVVRGLVNLGNTCFFNSIMQNLLSLDRLRDHFLKENGSGVGGPLASSLRKLFTETKPEAGLKSVINPRAFFGSFCSKAPQFRGYDQHDSHELLRCLLDSLSTEESALRKKRGVSDNDEKSTTLIESVFGGETSSIVSCMECGHSSKVYEPFLDLSLPVPFKKSPPKKPQPVSRAKKAKLPPKRVPKNVSKVSKVSKVLPGMVLSELNSSGKSMAVTADSDTSCSSLAPLDNGPVLETPSVLTLDNNQASESASQSDTGFDGSWLDFIGPETSGDETNLDMQEDGIDNVITAEVNQIVPSPNIVANSSVSSGDQTLEGNTERLMQDYEEIAKAEANLDEKDVQAMQSDECPATSGISAEFSQASCIGCDPGIGESSSSVNPWDEEELPLVVADSQILYMPYKEISCNDKSVEGECEASSSFVTGDHEPQNSDFVDFGGLFDEPETTEGPVFGPPSKAEASGVGFMAFSSESDPEEIDDSDLPVSVERCLGHFTKHEILSDDNAWNCENCSKNLKLQRLREKRKSNEDESRSSNTSNGWVKENEDEGFGETEILAVKQDPNDTSCVKDHSSDGRKAARIHSADESESKGTQDEDEDSEKVITVKRDATKKVLINKAPPVLTIHLKRFSQDLRGRLSKLNGHVAFKEVIDLRQYMDSRCSGEDPPVYRLAGLVEHSGTMRGGHYVAYVRGGQRVKETDSSSTAWYNVSDAYVRQVSLEKVLHSEAYILFYERIFSQE | 2.31
SINAT2, seven in absentia of Arabidopsis 2 (protein, UniProt Q9M2P4 1-308, looked up) E3 ubiquitin-protein ligase SINAT2: MAPGGSALKEVMESNSTGMDYEVKTAKVEVNNNKPTKPGSAGIGKYGIHSNNGVYELLECPVCTNLMYPPIHQCPNGHTLCSNCKLRVQNTCPTCRYELGNIRCLALEKVAESLEVPCRYQNLGCHDIFPYYSKLKHEQHCRFRPYTCPYAGSECSVTGDIPTLVVHLKDDHKVDMHDGCTFNHRYVKSNPHEVENATWMLTVFNCFGRQFCLHFEAFQLGMAPVYMAFLRFMGDENEAKKFSYSLEVGAHGRKLTWQGIPRSIRDSHRKVRDSQDGLIIPRNLALYFSGGDRQELKLRVTGRIWKEE | 2.99

Other lines, results leading:

Normalized Fold Change: SA vs Mock [fold] | Binder
2580 | UBP24, ubiquitin-specific protease 24 (protein, UniProt Q9FPS3 1-551, looked up) Ubiquitin carboxyl-terminal hydrolase 24: MSEKKVFVFGSFTEHETRSFFEQKPTKDPQNSKDKCVGSIQFGSLNLAAENSSVNTNGELKKGEADGTVKSAGSQERLDASRPASSDKNNDSDAKLPRKNSLRVPEHVVQNGIIKEISESNKSLNNGVAVKTDPIGLDNLSMSDGESDPVYKASSSKFQALDNEDFSSDSSSGSIQRKKNLKVPTESVPPVKDFTPRGLINAGNLCFLNATLQALLSCSPFVQLLQKIQLQDIPKADSPTLAAFSEFISELDVPSSSSIRNNVTVVEAGRPFRPAMFEGVLRNFTPDVLNNMSGRPRQEDAQEFLSFIMDQMHDELLKLKEQSPKVTASKSSVISSANDDGDEWETVGPKNKSAVTRTQSFVPSELSEIFGGQLKSVVKAKGTKASATVQPYLLLHLDIHPDGVQGIEDALHLFSAQEDLEGYRASVTGKTGVVSASKSIKIQKLSKIMILHLMRFSYGSQGSTKLRKGVKFPLELNLNRSHLVSLSNESLRYELVATITHHGWDPSKGHYTTDARRKNGQWLRFDDASVTPIGTKLVLHDQAYVLFYKQV
5.02 | UBP14, ubiquitin-specific protease 14 (protein, UniProt Q8L6Y1 1-797, looked up) Ubiquitin carboxyl-terminal hydrolase 14: MELLRSNLSRVQIPEPTHRIYKHECCISFDTPRSEGGLFVDMNSFLAFGKDYVSWNYEKTGNPVYLHIKQTRKSIPEDRPLKKPTLLAIGVDGGFDNNEPEYEESYSIVILPDFVSLPFPSVELPEKVRIAVDTVVNAVGAERKEQVAAWTAEKKLISEHALTLQQIKSGIVIPPSGWKCSKCDKTENLWLNLTDGMILCGRKNWDGTGGNNHAVEHYKETAYPLAVKLGTITADLEAADVYSYPEDDSVLDPLLAEHLAHFGIDFSSMQKTEMTTAERELDQNTNFDWNRIQESGKELVPVFGPGYTGLVNLGNSCYLAATMQIVFSTHSFISRYFSHQSLKMAFEMAPADPTLDLNMQLTKLGHGLLSGKYSMPATQKDATTGDPRQEGIPPRMFKNVIAASHAEFSSMRQQDALDFFLHLVGKVERASNTTPDLDPSRSFKFGIEEKILCPSGKVGYNKREDCILSLNIPLHEATNKDELEAFHKQKAGKGLEENDMRSSDEIVRPRVPLEACLANFASSEPIEDYYSSALKGMTTAIKTTGLTSFPDYLVLHMRKFVMEEGWVPKKLDVYIDVPDVIDISHMRSKGLQPGEELLPDGVPEEVMESAQPVANEEIVAQLVSMGFSQLHCQKAAINTSNAGVEEAMNWLLSHMDDPDIDAPISHQTSDIDQSSVDTLLSFGFAEDVARKALKASGGDIEKATDWVFNNPNASVSDMDVSSSNSAQTPAQSGLPDGGGKYKLFGIVSHMGTSVHCGHYVAHILKEGRWVIFNDDKVGISTDPPKDMGYVYFFQRLD
44.1 | atnudt5, NUDT5, nudix hydrolase homolog 5 (protein, UniProt Q9SJC6 1-302, looked up) Nudix hydrolase 5: MGLTKNFAFLVFCCQRYCSMDGEAFEISLLDGEEDRFGGTVVNLMEVESMTIGDFDSKLDVSLKAWKDQGKKGIWIKLPSELSSLVDTAIKKGFTYHHAENEYVMLTFWLPEPPSTLPCNASHRIGIGAFVLNKNGEMLVVQENSGYFKDKNVWKVPTGTIKEGESIWAGAVREVKEETDIDAEFVEVLSFMESHQAVWQRKTDIFFVCELEARTFEIQKQDSEIHAAKWMPVEEYVNQPYHNKEGNEMFKLIANICLKRSREKYTGFVLTTNSAKKSLYCSVDHANLLKETADQASTSLSD
